In PMC10801562 (Antibodies, 2024):
Changes are numbered by the printed parent chain.

T1: recombinant human CD3ε-CD3δ heterodimeric protein (CD3εδ) (Homo sapiens)
T1 construct: human CD3ε of the recombinant CD3εδ heterodimer; human CD3δ of the recombinant CD3εδ heterodimer; source: in-house prepared
T1 chain 1: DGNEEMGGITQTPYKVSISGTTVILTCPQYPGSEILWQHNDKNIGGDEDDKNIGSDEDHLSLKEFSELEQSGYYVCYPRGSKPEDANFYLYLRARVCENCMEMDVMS
T1 chain 2: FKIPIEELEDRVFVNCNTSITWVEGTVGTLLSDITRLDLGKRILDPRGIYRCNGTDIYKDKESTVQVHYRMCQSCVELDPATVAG

B1: mSP34 mIgG1 V1+C19, homodimeric antibody with FAST-Ig V1+C19 mutations (antibody, V domains shown)
VH: EVQLVESGGGLVQPKGSLKLSCAASGFTFNTYAMNWVREAPGKGLEWVARIRSKYNNYATYYADSVKDRFTISRDDSQSILYLQMNNLKTEDTAMYYCVRHGNFGNSYVSWFAYWGQGTLVTVSA
VL: QAVVTQESALTTSPGETVTLTCRSSTGAVTTSNYANWVQKKPDHLFTGLIGGTNKRAPGVPARFSGSLIGDKAALTITGAQTEDEAIYFCALWYSNLWVFGGGTKLTVL
notes: VH of mSP34; mouse IgG1 (mIgG1) heavy chain constant region; numbers count on: Eu numbering; VL (lambda) of mSP34; mouse lambda light chain constant region (CL); numbers count on: Kabat numbering; Whole IgG of one HC and one LC; also called anti-CD3; H2L2H2L2; source: Expi293F, transiently expressed, purified (Ab-Capcher MAG2 or MonoSpin ProG); copies: 2 + 2
B2: mSP34 mIgG2a V1+C19, homodimeric antibody with FAST-Ig V1+C19 mutations (antibody, V domains shown)
VH: B1 VH
VL: B1 VL
notes: VH of mSP34; mouse IgG2a (mIgG2a) heavy chain constant region; numbers count on: Eu numbering; VL (lambda) of mSP34; mouse lambda light chain constant region (CL); numbers count on: Kabat numbering; Whole IgG of one HC and one LC; also called anti-CD3; H2L2H2L2; source: Expi293F, transiently expressed, purified (Ab-Capcher MAG2, MonoSpin ProA or MonoSpin ProG); copies: 2 + 2
B3: mSP34 mIgG2a, homodimeric antibody without FAST-Ig mutations (antibody, V domains shown)
VH: B1 VH with E39Q
VL: B1 VL with K40E
notes: VH of the original mouse antibody mSP34; mouse IgG2a (mIgG2a) heavy chain constant region; numbers count on: Eu numbering; VL (lambda) of the original mouse antibody mSP34; mouse lambda light chain constant region (CL); Whole IgG of one HC and one LC; also called anti-CD3; H2L2H2L2; source: Expi293F, transiently expressed, purified (Ab-Capcher MAG2, MonoSpin ProA or MonoSpin ProG); copies: 2 + 2
B4: mSP34 mIgG1, homodimeric antibody without FAST-Ig mutations (antibody, V domains shown)
VH: B1 VH with E39Q
VL: B1 VL with K40E
notes: VH of the original mouse antibody mSP34; mouse IgG1 (mIgG1) heavy chain constant region; numbers count on: Eu numbering; VL (lambda) of the original mouse antibody mSP34; mouse lambda light chain constant region (CL); Whole IgG of one HC and one LC; also called anti-CD3; H2L2H2L2; source: Expi293F, transiently expressed, purified (Ab-Capcher MAG2 or MonoSpin ProG); copies: 2 + 2
B5: mUCHT1 mIgG1 V1+C19, homodimeric antibody with FAST-Ig V1+C19 mutations (antibody, V domains shown)
VH: EVQLQQSGPELVKPGASMKISCKASGYSFTGYTMNWVKESHGKNLEWMGLINPYKGVSTYNQKFKDKATLTVDKSSSTAYMELLSLTSEDSAVYYCARSGYYGDSDWYFDVWGQGTTLTVFS
VL: DIQMTQTTSSLSASLGDRVTISCRASQDIRNYLNWYQKKPDGTVKLLIYYTSRLHSGVPSKFSGSGSGTDYSLTISNLEQEDIATYFCQQGNTLPWTFAGGTKLEIK
notes: VH of mUCHT1; mouse IgG1 (mIgG1) heavy chain constant region; numbers count on: Eu numbering; VL of mUCHT1; mouse kappa light chain constant region (CL); numbers count on: Kabat numbering; Whole IgG of one HC and one LC; also called anti-CD3; H2L2H2L2; source: Expi293F, transiently expressed, purified (Ab-Capcher MAG2 or MonoSpin ProG); copies: 2 + 2
B6: mUCHT1 mIgG2a V1+C19, homodimeric antibody with FAST-Ig V1+C19 mutations (antibody, V domains shown)
VH: B5 VH
VL: B5 VL
notes: VH of mUCHT1; mouse IgG2a (mIgG2a) heavy chain constant region; numbers count on: Eu numbering; VL of mUCHT1; mouse kappa light chain constant region (CL); numbers count on: Kabat numbering; Whole IgG of one HC and one LC; also called anti-CD3; H2L2H2L2; source: Expi293F, transiently expressed, purified (Ab-Capcher MAG2, MonoSpin ProA or MonoSpin ProG); copies: 2 + 2
B7: mUCHT1 mIgG2a, homodimeric antibody without FAST-Ig mutations (antibody, V domains shown)
VH: B5 VH with E39Q
VL: B5 VL with K38Q
notes: VH of the original mouse antibody mUCHT1; mouse IgG2a (mIgG2a) heavy chain constant region; numbers count on: Eu numbering; VL of the original mouse antibody mUCHT1; mouse kappa light chain constant region (CL); Whole IgG of one HC and one LC; also called anti-CD3; H2L2H2L2; source: Expi293F, transiently expressed, purified (Ab-Capcher MAG2, MonoSpin ProA or MonoSpin ProG); copies: 2 + 2
B8: mUCHT1 mIgG1, homodimeric antibody without FAST-Ig mutations (antibody, V domains shown)
VH: B5 VH with E39Q
VL: B5 VL with K38Q
notes: VH of the original mouse antibody mUCHT1; mouse IgG1 (mIgG1) heavy chain constant region; numbers count on: Eu numbering; VL of the original mouse antibody mUCHT1; mouse kappa light chain constant region (CL); Whole IgG of one HC and one LC; also called anti-CD3; H2L2H2L2; source: Expi293F, transiently expressed, purified (Ab-Capcher MAG2 or MonoSpin ProG); copies: 2 + 2

Target: T1, recombinant human CD3ε-CD3δ …
Experiment: SPR; Biacore T200, 37 °C, pH 7.4, PB-P+; antibody captured (630 RU) by anti-mouse IgG (Fc) antibody on a CM4 chip; human CD3εδ as analyte, 1.2-4800 nmol/L; 1:1 binding model (mUCHT1, mSP34)
Conditions: both partners purified

Row | Binder | Kd [nM]
1 | B1 | 56.9
2 | B2 | 25.7
3 | B3 | 16
4 | B4 | 20.9
5 | B5 | 1.32
6 | B6 | 1.32
7 | B7 | 1.02
8 | B8 | 1.45
